Literature values as cited in paper PMC7427315.

Biological target: MAG ECD (Mus musculus) (UniProt P20917)

In the case of MAG ECD (from UniProt P20917), the Kd is listed as 380 µM.
